Here are results for one sequence from paper PMC3784511.

For the data set, the target named is T1, NF-kB p50 homodimer (UniProt P19838).
T1 sequence: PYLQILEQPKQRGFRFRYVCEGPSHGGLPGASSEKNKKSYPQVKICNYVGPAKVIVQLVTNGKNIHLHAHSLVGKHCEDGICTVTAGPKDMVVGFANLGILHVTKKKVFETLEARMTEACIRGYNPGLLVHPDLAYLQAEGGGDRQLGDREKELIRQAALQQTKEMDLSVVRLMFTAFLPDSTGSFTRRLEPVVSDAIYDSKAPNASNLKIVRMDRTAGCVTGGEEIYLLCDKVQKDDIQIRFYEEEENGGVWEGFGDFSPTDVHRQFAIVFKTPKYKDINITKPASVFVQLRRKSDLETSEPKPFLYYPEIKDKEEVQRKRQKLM
In words: UV laser footprinting. Particulars: 10 mM Tris pH 7.4, 75 mM NaCl, 1 mM EDTA, 1 mM DTT, 100 ug/ml BSA, 0.01% NP40 (omitted in dilution experiments), 5% glycerol, 37 C; naked DNA supplemented with ….

The Kd is a measure of binding affinity in units of concentration. High values mean a looser complex, low ones a tighter complex. For the sequence “GCTCGGAATTCTATCCGACTGGCACCGGCAAGGTCGCTGTTCAATACATGCACAGGATGTATATATCTGACACGTGCCTGGAGACTAGGTAGTAATTCTCTTGGCGGTTAAAACGCGGTGTACAGCGCGTACGTGCGTTTAAGCGGTGCTAGAGCTTGCTACGACCAATTGAGCGGCCTCGGCACGGGGATTCCCCAGGTCGGCCGCGTATAGTGTCCATCACATAAGTGATGAACTCGGTCTTAAGAATCATGC (double strand) [601_D7 DNA (255 bp)]”, the equilibrium dissociation constant (Kd) was 14 nM. That is a double-digit nanomolar value.
